Target: the molecule itself
Assay: negative staining electron microscopy; purified protein incubated overnight at 30°C with preformed liposomes (protein/lipid 1/20; DMPC-d54/β-sitosterol 85/15 or DMPC-d54/β-sitosterol/PIP mix 75/15/10), 2% uranyl acetate stain; filaments mostly in samples without PIPs, very few with PIPs

B1: REM_(86-198), truncated StREM1.3 bearing only the coiled-coil domain and RemCA (domain or fragment, Solanum tuberosum (potato), UniProt P93788 86-198, looked up)
chain: TEKRVSLIKAWEESEKSKAENKAQKKVSAIGAWENSKKANLEAELKKMEEQLEKKKAEYTEKMKNKIALLHKEAEEKRAMIEAKRGEDLLKAEELAAKYRATGTAPKKILGIF
notes: Remorin group 1 isoform 3 (StREM1.3) of potato (Solanum tuberosum), residues 86-198: coiled-coil segment and the C-terminal membrane anchor RemCA; source: E. coli BL21-DE3 (pET24 vector), purified as described in Martinez et al. (2018), HiPrep gel filtration buffer exchange
B1: binds.

From PMC6803476, “Nanodomain Clustering of the Plant Protein Remorin by Solid-State NMR” (Frontiers in Molecular Biosciences, 2019)
